B1: TPR t1 (parent)
chain: GACCAAUCUGCCCUCAGAGCUCGAGAACAUCUUCGGAUGCAGAGGAGGCAGGCUUCGGUGGCGCGAUAGCGCCAACGUCCUCAACCUCCAAUGCAUCCCACCACAUGAUGAUGCCUGAAGAGCCUUGGUUUUUUG

Variants of: B1
Assay: polymerase ribozyme fitness, log enrichment relative to wild type (log ratio); higher = more active; in vitro selection for triplet polymerase activity
How it was run: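 Mutant libraries were PCR-built and transcribed for each subunit of a heterodimeric triplet polymerase ribozyme and selected for one round in triplicate at −7 °C, frozen, before gel excision of extended constructs and streptavidin-bead capture. Input and output libraries were Illumina-sequenced, keeping genotypes with ≥10 input reads and ≥1 read per output. Fitness is a logarithmic ratio of genotype to wild-type enrichment, in base 2, using inverse-variance-weighted replicate averages.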

Row | Variant | polymerase ribozyme fitness (log ratio)
1 | C40G G58C G60U C101U U126C | -2.69
2 | C40G G44C C72A U78G C94G A121C G128U | -6.15
3 | C40G C49U | -2.95
4 | C40A G63A G128U | -4.66
5 | C40G A43G C114U | -4.36
6 | C40A C89G U106G C123U | -5.55
7 | C40U A90U | -1.76
8 | C40A U133G | -1.45
9 | C40A U59A | -1.29
10 | C40G U112A | 1.38
11 | C40U G69A C72U C124A | -1.11
12 | C40G C72G C73A U78G | -4.57
13 | C40U U130G | -0.974
14 | C40U G45U G48U C82G A84G G120A | -2.88
15 | C40G G51A C56A C72A A121U | -3.83
16 | C40G C115U | -2.07
17 | C40A C80U C89U G117A A121G | -0.909
18 | C40U C73U | -0.508
19 | C40A G63U | -3.37
20 | C40A G63A | -2.68
21 | C40A G45A | -2.54

Row | Variant | polymerase ribozyme fitness (log ratio)
22 | C40U C56U A91C C97U C115U | -3.89
23 | C40U U92C G110A G117C | -6.39
24 | C40A G57C U81G C82G C97A A111U | -6.79
25 | C40U A43U A90G G113U | -3.26
26 | C40U U96G C115G A118U G122U | -3.71
27 | C40A G47A G60A A75U C86U C97U C123A U132A | -1.57
28 | C40U C114U | -2.55
29 | C40A C76U | -1.15
30 | A41C A74U U87C | -0.35
31 | C40A C89U | -0.912
32 | C40U G42C G63U C85U U130A | -5.03
33 | C40A C86U | -1.9
34 | A41C A43U C53U U126C | -2.72
35 | A41C A105C | -5.23
36 | C40U G61U C97A | -5.61
37 | C40U C80U C86U A91C U112G | -3.87
38 | C40G A46C G48U C73G C124G | -5.04
39 | C40U C73G C123G U132A | 0.0747
40 | C40U G122A U130A | -1.96
41 | C40A G71A G113A | -3.05
42 | C40A C82A U92A C102A C124U | -4.16

Row | Variant | polymerase ribozyme fitness (log ratio)
43 | C40U C94U | -1.54
44 | C40G C53A C123G | 0.48
45 | C40G G57A A84C U112A G122A | -3.59
46 | C40G G77A C97U | -4.09
47 | C40A G45U A90G | -1.17
48 | C40A G42U G45U C56G C73U | -4.17
49 | C40G C114G | -4.17
50 | C40U U59C C85G | -2.73
51 | C40U U116A | -3.34
52 | C40U C56G C70U | -2.46
53 | C40A U59A G60A | -0.777
54 | C40U A43U G69U | 0.0551
55 | C40G A41U G45A A91U | -4.47
56 | C40A C82U | -1.77
57 | C40U C124G | 1.52
58 | C40U A46G U78G | -0.597
59 | C40U G44A G63A | -1.6
60 | C40A C102U | -3.15
61 | C40U C56A A74C U130C | -1.15
62 | C40G C53U G127C | -1.33
63 | C40A G71U U131A | -2.31

Row | Variant | polymerase ribozyme fitness (log ratio)
64 | C40U A41C | -2.44
65 | C40G G71A U125A | -2.35
66 | C40U U92C | -1.86
67 | C40G C56A G69C C115G | -6.15
68 | C40G G44A C98U | -5.49
69 | C40G G61C A118U | -1.55
70 | C40A U106A C124A | 1.38
71 | C40U A43C C64U G93C C115A | -2.31
72 | C40U G69C U78A G110A | -5.28
73 | C40A G63U C104A G120A U130G | -5.07
74 | C40G A91C C98U | -5.6
75 | C40A G69C A105G | -6.71
76 | C40U C53U C70U C72U C97U | -1.36
77 | C40U C80A A84U | -4.52
78 | C40U G42A C114U | -1.92
79 | C40U G60A G120U | -0.0652
80 | C40A G52A G60A U81C A95U | -3.45
81 | C40G G77U C101G U112A | -1.23
82 | C40G G63U G120A | -0.497
83 | C40A C72G A108G | -4.46
84 | C40U G60A | -0.683

— the RNAGym collection of RNA variant scans (doi:10.1073/pnas.2313332121)
